We go through 41 molecules from PMC11417369, “DNA sequence and chromatin differentiate sequence-specific transcription factor binding in the human malaria parasite Plasmodium falciparum”.

Residue numbers refer to the chain shown, from its start.

B1: GTGCAC_site9711 (dsDNA)
DNA 1: TTAAATTATTAGAGAGTGCATTATATATATTATACA
DNA 2: TGTATAATATATATAATGCACTCTCTAATAATTTAA
B2: GTGCAC_site10002 (dsDNA)
DNA 1: TATAAGGCAATAATAGTGCACTAAGATATATAATGA
DNA 2: TCATTATATATCTTAGTGCACTATTATTGCCTTATA
B3: GTGCAC_site9557 (dsDNA)
DNA 1: TTTTTATGGACTATGGTGCATTATATATAAATGAAA
DNA 2: TTTCATTTATATATAATGCACCATAGTCCATAAAAA
B4: GTGCAC_site9437 (dsDNA)
DNA 1: CATTTTCATTTTAAGGTGCATTAATATTTATTTTAA
DNA 2: TTAAAATAAATATTAATGCACCTTAAAATGAAAATG
B5: GTGCAC_site10158 (dsDNA)
DNA 1: AGGTTTTCTTAAATAGTGCATTATAACAAAAATAAA
DNA 2: TTTATTTTTGTTATAATGCACTATTTAAGAAAACCT
B6: GTGCAC_site10763 (dsDNA)
DNA 1: AGGATAAAAGTTATGGTGCATTAACCTATTTAAATA
DNA 2: TATTTAAATAGGTTAATGCACCATAACTTTTATCCT
B7: GTGCAC_site9883 (dsDNA)
DNA 1: ATTAAATGCAGTTCGGTGCATTAAGGTTATGATGAA
DNA 2: TTCATCATAACCTTAATGCACCGAACTGCATTTAAT
B8: GTGCAC_site10146 (dsDNA)
DNA 1: GAGGTACATTAATTAGTGCATTAAAATTTTTATCCT
DNA 2: AGGATAAAAATTTTAATGCACTAATTAATGTACCTC
B9: GTGCAC_site10014 (dsDNA)
DNA 1: TTTACCTCTTCAATGGTGCAATAACTCAAAAATTTG
DNA 2: CAAATTTTTGAGTTATTGCACCATTGAAGAGGTAAA
B10: GTGCAC_site9418 (dsDNA)
DNA 1: ATGATATATTTAATAGTGCACTAATTAAAATTATTA
DNA 2: TAATAATTTTAATTAGTGCACTATTAAATATATCAT
B11: GTGCAC_site9835 (dsDNA)
DNA 1: ATTTAAAAGTTGGTAGTGCATTAAAAATAACAAAAA
DNA 2: TTTTTGTTATTTTTAATGCACTACCAACTTTTAAAT
B12: GTGCAC_site9836 (dsDNA)
DNA 1: ATTATATACATTTTAGTGCATTACATAATAATATAA
DNA 2: TTATATTATTATGTAATGCACTAAAATGTATATAAT
B13: GTGCAC_site10275 (dsDNA)
DNA 1: AATATTCATATGCAGGTGCATTAATTTTTATTAATT
DNA 2: AATTAATAAAAATTAATGCACCTGCATATGAATATT
B14: GTGCAC_site10279 (dsDNA)
DNA 1: GCCAATAAAGATGTGGTGCATTATATATATATATAT
DNA 2: ATATATATATATATAATGCACCACATCTTTATTGGC
B15: GTGCAC_site10254 (dsDNA)
DNA 1: GTATATAAATAAATAGTGCATTATTAAAAATAATGT
DNA 2: ACATTATTTTTAATAATGCACTATTTATTTATATAC
B16: GTGCAC_site10298 (dsDNA)
DNA 1: ATTTATTTCTTGTTAGTGCACTTTCTTTGGTAAAAT
DNA 2: ATTTTACCAAAGAAAGTGCACTAACAAGAAATAAAT
B17: GTGCAC_site9914 (dsDNA)
DNA 1: TGGCTTTCCCTGCCGGTGCATTAACATTTTTTACAT
DNA 2: ATGTAAAAAATGTTAATGCACCGGCAGGGAAAGCCA
B18: GTGCAC_site9795 (dsDNA)
DNA 1: ATCATATTTATGTTGGTGCATTATGCATGGATTTTA
DNA 2: TAAAATCCATGCATAATGCACCAACATAAATATGAT
B19: GTGCAC_site9571 (dsDNA)
DNA 1: B18 DNA 1 with G12A, G30A, T32A
DNA 2: B18 DNA 2 with A5T, C7T, C25T
B20: GTGCAC_site9879 (dsDNA)
DNA 1: TTTTTATTTTTAGTAGTGCATTAATCATATGGTCAT
DNA 2: ATGACCATATGATTAATGCACTACTAAAAATAAAAA
B21: GTGCAC_site10253 (dsDNA)
DNA 1: TTTTTTTTTTTGATGGTGCAATATATTAAATAGAAA
DNA 2: TTTCTATTTAATATATTGCACCATCAAAAAAAAAAA
B22: GTGCAC_site9419 (dsDNA)
DNA 1: ATATAAAGTATGTTAGTGCACTTTTTTTTTTTTTTT
DNA 2: AAAAAAAAAAAAAAAGTGCACTAACATACTTTATAT
B23: GTGCAC_site10332 (dsDNA)
DNA 1: ATTACATTAATAAGAGTGCATTATATAAGTTTTATG
DNA 2: CATAAAACTTATATAATGCACTCTTATTAATGTAAT
B24: GTGCAC_site10285 (dsDNA)
DNA 1: CATAAATAAGCTTTAGTGCATTATATTTAAATTTTT
DNA 2: AAAAATTTAAATATAATGCACTAAAGCTTATTTATG
B25: GTGCAC_site9729 (dsDNA)
DNA 1: GAACAAATTAAATAGGTGCATTAACATGTTCTATTT
DNA 2: AAATAGAACATGTTAATGCACCTATTTAATTTGTTC
B26: GTGCAC_site9493 (dsDNA)
DNA 1: TAAAATTATTAATGAGTGCATTATAAAATCTATATA
DNA 2: TATATAGATTTTATAATGCACTCATTAATAATTTTA
B27: GTGCAC_site9511 (dsDNA)
DNA 1: TTTATATTTATGTAGGTGCATTTGTTTACAACATAT
DNA 2: ATATGTTGTAAACAAATGCACCTACATAAATATAAA
B28: GTGCAC_site10505 (dsDNA)
DNA 1: ATTATTACTTTTTGAGTGCACATACACACAGACATA
DNA 2: TATGTCTGTGTGTATGTGCACTCAAAAAGTAATAAT
B29: GTGCAC_site10713 (dsDNA)
DNA 1: TTTTTTTTTCAAGAGGTGCGTGTATTTTAACAAAAA
DNA 2: TTTTTGTTAAAATACACGCACCTCTTGAAAAAAAAA
B30: GTGCAC_site9720 (dsDNA)
DNA 1: TATATTAAAAAAGAGGTGCATTCGTAAGAGGTTAAA
DNA 2: TTTAACCTCTTACGAATGCACCTCTTTTTTAATATA
B31: GTGCAC_site10569 (dsDNA)
DNA 1: TACTATTATAAATATGTGCACTTCAATAATATACTA
DNA 2: TAGTATATTATTGAAGTGCACATATTTATAATAGTA
B32: GTGCAC_site9937 (dsDNA)
DNA 1: TTTCACATATATATGGTGCATATTTTATGTGTAAAT
DNA 2: ATTTACACATAAAATATGCACCATATATATGTGAAA
B33: GTGCAC_site10559 (dsDNA)
DNA 1: TAAATATTTTTATGGGTGCGTTCTTTAGCGCAATTT
DNA 2: AAATTGCGCTAAAGAACGCACCCATAAAAATATTTA
B34: GTGCAC_site10397 (dsDNA)
DNA 1: ATATATAATAAACAGGTGCATTGTTTTATTTTGTAT
DNA 2: ATACAAAATAAAACAATGCACCTGTTTATTATATAT
B35: GTGCAC_site10385 (dsDNA)
DNA 1: GTGGTTGTAATGGTGGTGCATATTGTATATTATGTT
DNA 2: AACATAATATACAATATGCACCACCATTACAACCAC
B36: GTGCAC_site10187 (dsDNA)
DNA 1: TTAAAAAATAACAAGGTGCAAATAGGTTTATAAAAT
DNA 2: ATTTTATAAACCTATTTGCACCTTGTTATTTTTTAA
B37: GTGCAC_site10274 (dsDNA)
DNA 1: CAACCTTTTTTGTTGGTGCATAATTTTTTTTTCTTT
DNA 2: AAAGAAAAAAAAATTATGCACCAACAAAAAAGGTTG
B38: GTGCAC_site10388 (dsDNA)
DNA 1: B18 DNA 1 with C3T, G25A, G30A, T32A
DNA 2: B18 DNA 2 with A5T, C7T, C12T, G34A
B39: GTGCAC_site10377 (dsDNA)
DNA 1: GAATAAATATTAAATGTGCACTTGAATAGATGTAAA
DNA 2: TTTACATCTATTCAAGTGCACATTTAATATTTATTC
B40: GTGCAC_site10141 (dsDNA)
DNA 1: ACCCATTTTAATTTAGTGCACATTTTACCTTTATAC
DNA 2: GTATAAAGGTAAAATGTGCACTAAATTAAAATGGGT
B41: GTGCAC_site10688 (dsDNA)
DNA 1: AGTGACACCAAAGGGGTGCAATGAAATTAAAAATAT
DNA 2: ATATTTTTAATTTCATTGCACCCCTTTGGTGTCACT

One data set deals with AP2-I D3 (Plasmodium falciparum, UniProt Q8IJW6 910-1027). The experiment in a line: gcPBM; about 25 ug protein; PBS, 1% milk, 0.2 mg/ml BSA, salmon testes DNA, 0.03% Triton X-100. The conditions noted are these: tags: N-terminal GST (pGEX-4T-1), kept; label: surface-attached array probe.
For B1, the binding signal is 12.1 ln median PBM intensity, better of two orientations.
On the same count and under the same terms, the result for B2 reads 12.3 ln median PBM intensity, better of two orientations; that for B3, 12.3 ln median PBM intensity, better of two orientations; that for B4, 12.1 ln median PBM intensity, better of two orientations.
Same read-out and setting: the result for B5 reads 12.1 ln median PBM intensity, better of two orientations; that for B6, 12.1 ln median PBM intensity, better of two orientations.
On to B7, for which the binding signal was 12.1 ln median PBM intensity, better of two orientations.
Consider B8, for which the binding signal was 12.2 ln median PBM intensity, better of two orientations.
On the same count and under the same terms, the result for B9 reads 12.3 ln median PBM intensity, better of two orientations; that for B10, 12.4 ln median PBM intensity, better of two orientations.
Still for that read-out and setting: the result for B11 reads 12.2 ln median PBM intensity, better of two orientations; that for B12, 12.1 ln median PBM intensity, better of two orientations.
On to B13, for which the binding signal is 12.2 ln median PBM intensity, better of two orientations.
Regarding B14, the binding signal was 12.1 ln median PBM intensity, better of two orientations.
On the same count and under the same terms, then B15, with 12.2 ln median PBM intensity, better of two orientations.
B16: the binding signal is 12.1 ln median PBM intensity, better of two orientations.
Still for that read-out and setting: the result for B17 reads 12.3 ln median PBM intensity, better of two orientations; that for B18, 12.2 ln median PBM intensity, better of two orientations; that for B19, 12.1 ln median PBM intensity, better of two orientations.
With B20, the binding signal was 12.1 ln median PBM intensity, better of two orientations.
For the molecule B21, the binding signal is 12.2 ln median PBM intensity, better of two orientations.
Still for that read-out and setting: then B22, with 12.1 ln median PBM intensity, better of two orientations.
On the same count and under the same terms, then B23, with 12.1 ln median PBM intensity, better of two orientations.
Still for that read-out and setting: the result for B24 reads 12.2 ln median PBM intensity, better of two orientations; that for B25, 12.2 ln median PBM intensity, better of two orientations; that for B26, 12.1 ln median PBM intensity, better of two orientations.

The target in a further data set is T1, SIP2 D1 (Plasmodium falciparum, UniProt C6KSN9 177-235).
T1 sequence: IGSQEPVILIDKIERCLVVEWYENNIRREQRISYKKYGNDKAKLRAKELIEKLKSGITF
The description is as above. The settings on record: tags: N-terminal GST (pGEX-4T-1), kept; label: surface-attached array probe.
Regarding B27, the binding signal is 10.3 ln median PBM intensity, better of two orientations.
The same measure, in the same setting: then B28, with 10.6 ln median PBM intensity, better of two orientations; and B29, with 10.3 ln median PBM intensity, better of two orientations.
Still for that read-out and setting: the result for B30 reads 10.6 ln median PBM intensity, better of two orientations.
Still for that read-out and setting: then B31, with 10.4 ln median PBM intensity, better of two orientations; and B32, with 10.5 ln median PBM intensity, better of two orientations; and B33, with 10.4 ln median PBM intensity, better of two orientations.
With B34, the binding signal was 10.5 ln median PBM intensity, better of two orientations.
Turning to B35, the binding signal was 10.7 ln median PBM intensity, better of two orientations.
Take B36: the binding signal is 10.3 ln median PBM intensity, better of two orientations.
Same read-out and setting: the result for B37 reads 10.2 ln median PBM intensity, better of two orientations; that for B38, 10.2 ln median PBM intensity, better of two orientations.
For the molecule B39, the binding signal was 10.3 ln median PBM intensity, better of two orientations.
Still for that read-out and setting: the result for B40 reads 10.5 ln median PBM intensity, better of two orientations; that for B41, 10.6 ln median PBM intensity, better of two orientations.
